Our source for the Kd values is patent US20110287936.

What all share (test): SPR
Background: SPR reads the build-up and loss of mass on a sensor chip optically.

The subject of series [1] is L7-1C03-A5 (EsR1) (Artificial Sequence). The following applies: ka 4.7e4 M-1 s-1, kd 7.8e-3 s-1; operator sequence not given for SPR.
In series [2] the target is L7-1F08-A11 (L7A11, EsR A11) (Artificial Sequence) (UniProt P04483). To be noted: ka 7.1e4 M-1 s-1, kd 1.7e-2 s-1; operator sequence not given for SPR.
Series [3] concerns L7-1G06-B2 (Artificial Sequence). The following applies: ka 4.6e4 M-1 s-1, kd 1.9e-2 s-1; operator sequence not given for SPR.
Series [4] concerns L7-3E03-D1 (EsR D01) (Artificial Sequence). To be noted: ka 5.5e4 M-1 s-1, kd 1.1e-2 s-1; operator sequence not given for SPR.
For series [5], the target named is Wt TetR(B) (Tn10) (Escherichia coli) (UniProt P04483). The following applies: ka 3.3e5 M-1 s-1, kd 3.0e-3 s-1; operator sequence not given for SPR.

As a reminder, the Kd is the equilibrium constant for the complex coming apart. A high value points to lower affinity. Regarding tet operator used for SPR, the dissociation constant (Kd) in series [1] was found to be 0.15 µM; in series [2] it was 0.25 µM; in series [3], 0.43 µM; in series [4], 0.2 µM; in series [5], 0.009 µM.
